Tests used:
Test in all cases: purified protein, by the assay type
Type in all cases: biochemical
[1] = substrate: CC(=O)NCCSC(=O)[C@H](CC(C)C)NC(=O)[C@H](CCCN)NC(=O)[C@@H](NC(=O)[C@H](C)NC(=O)[C@H](CCC(N)=O)NC(=O)[C@H](CC(N)=O)NC(=O)[C@@H](Cc1ccccc1)NC(=O)[C@H](Cc1ccccc1)NC(=O)[C@@H]1CCCN1C(=O)[C@H](N)Cc1ccccc1)C(C)C; conditions: other: Table 1; macrocyclization of peptide-SNAC substrate; 25 mM MOPS, pH 7.0
Description: (§1) Macrocyclization reactions were carried out in 25 mM MOPS, pH 7.0 in a total volume of 400 μL. Reactions were initiated by addition of TycC TE and quenched at various time points by the addition of 25 μL 1.7% TFA/water, flash frozen in liquid nitrogen and stored at −80° C. (for Ex. 13, reactions were quenched by the addition of sodium phosphate, pH 5.3, to 100 mM). The reactions were then thawed, 85 μL acetonitrile added, and analyzed by analytical HPLC with monitoring at 220 nm (20% to 80% acetonitrile in 0.1% TFA/water, or in 25 mM potassium phosphate, pH 5.3 for Ex. 13, over 35 minutes, Vydac protein and peptide C18 column). Initial rates were calculated using 1 minute time points. Peptide-SNAC and reaction product concentrations were determined for all Tyr-containing peptides based on the estimated extinction coefficient ε (280 nm)=1,280 M^−1 cm^−1, which agrees with the experimentally determined ε (280 nm) of Ex. 1. For peptide-SNACs not containing Tyr, ε (220 nm) was determined experimentally, and concentrations of corresponding cyclic products determined by assuming equal ε (220 nm) values for the peptide-SNAC and cyclic product.

[2] = substrate: CC(=O)NCCSC(=O)[C@H](CC(C)C)NC(=O)[C@H](CCCN)NC(=O)[C@@H](NC(=O)[C@H](Cc1ccc(O)cc1)NC(=O)[C@H](C)NC(=O)[C@H](CC(N)=O)NC(=O)[C@@H](Cc1ccccc1)NC(=O)[C@H](Cc1ccccc1)NC(=O)[C@@H]1CCCN1C(=O)[C@H](N)Cc1ccccc1)C(C)C; conditions: other: Table 1; macrocyclization of peptide-SNAC substrate; 25 mM MOPS, pH 7.0
Description: as §1

[3] = substrate: CC(=O)NCCSC(=O)[C@H](CC(C)C)NC(=O)[C@H](CCCN)NC(=O)[C@@H](NC(=O)[C@H](Cc1ccc(O)cc1)NC(=O)[C@H](CCC(N)=O)NC(=O)[C@H](CC(N)=O)NC(=O)[C@H](Cc1ccccc1)NC(=O)[C@@H]1CCCN1C(=O)[C@H](N)Cc1ccccc1)C(C)C; conditions: other: Table 1; macrocyclization of peptide-SNAC substrate; 25 mM MOPS, pH 7.0
Description: as §1

[4] = substrate: CC(=O)NCCSC(=O)[C@H](CC(C)C)NC(=O)[C@H](CCC(=O)O)NC(=O)[C@@H](NC(=O)[C@H](Cc1ccc(O)cc1)NC(=O)[C@H](CCC(N)=O)NC(=O)[C@H](CC(N)=O)NC(=O)[C@@H](Cc1ccccc1)NC(=O)[C@H](Cc1ccccc1)NC(=O)[C@@H]1CCCN1C(=O)[C@H](N)Cc1ccccc1)C(C)C; conditions: other: Table 1; macrocyclization of peptide-SNAC substrate; 25 mM MOPS, pH 7.0
Description: as §1

[5] = substrate: CC(=O)NCCSC(=O)[C@H](CC(C)C)NC(=O)[C@H](CCCN)NC(=O)[C@H](C)NC(=O)[C@H](Cc1ccc(O)cc1)NC(=O)[C@H](CCC(N)=O)NC(=O)[C@H](CC(N)=O)NC(=O)[C@@H](Cc1ccccc1)NC(=O)[C@H](Cc1ccccc1)NC(=O)[C@@H]1CCCN1C(=O)[C@H](N)Cc1ccccc1; conditions: other: Table 1; macrocyclization of peptide-SNAC substrate; 25 mM MOPS, pH 7.0
Description: as §1

[6] = substrate: CC(=O)NCCSC(=O)[C@H](C)NC(=O)[C@H](CCCN)NC(=O)[C@@H](NC(=O)[C@H](Cc1ccc(O)cc1)NC(=O)[C@H](CCC(N)=O)NC(=O)[C@H](CC(N)=O)NC(=O)[C@@H](Cc1ccccc1)NC(=O)[C@H](Cc1ccccc1)NC(=O)[C@@H]1CCCN1C(=O)[C@H](N)Cc1ccccc1)C(C)C; conditions: other: Table 1; macrocyclization of peptide-SNAC substrate; 25 mM MOPS, pH 7.0
Description: as §1

[7] = substrate: CC(=O)NCCSC(=O)[C@H](CC(C)C)NC(=O)[C@H](CCCN)NC(=O)[C@@H](NC(=O)[C@H](CC(C)C)NC(=O)[C@@H]1CCCN1C(=O)[C@@H](Cc1ccccc1)NC(=O)[C@H](CC(C)C)NC(=O)[C@H](CCCN)NC(=O)[C@@H](NC(=O)[C@H](CC(C)C)NC(=O)[C@@H]1CCCN1C(=O)[C@H](N)Cc1ccccc1)C(C)C)C(C)C; conditions: other: Table 2; cyclization of peptide-SNAC substrates of 6-14 amino acids
Description: as §1

[8] = substrate: CC(=O)NCCSC(=O)[C@H](CC(C)C)NC(=O)[C@H](CCCN)NC(=O)[C@@H](NC(=O)[C@H](Cc1ccc(O)cc1)NC(=O)[C@H](CCC(N)=O)NC(=O)[C@H](CC(N)=O)NC(=O)[C@@H](Cc1ccccc1)NC(=O)[C@H](Cc1ccccc1)NC(=O)[C@H](C)NC(=O)[C@H](N)Cc1ccccc1)C(C)C; conditions: other: Table 1; macrocyclization of peptide-SNAC substrate; 25 mM MOPS, pH 7.0
Description: as §1

[9] = substrate: CC(=O)NCCSC(=O)[C@H](CC(C)C)NC(=O)[C@H](CCCN)NC(=O)[C@@H](NC(=O)[C@H](Cc1ccc(O)cc1)NC(=O)[C@H](CCC(N)=O)NC(=O)[C@H](CC(N)=O)NC(=O)[C@@H](C)NC(=O)[C@H](Cc1ccccc1)NC(=O)[C@@H]1CCCN1C(=O)[C@H](N)Cc1ccccc1)C(C)C; conditions: other: Table 1; macrocyclization of peptide-SNAC substrate; 25 mM MOPS, pH 7.0
Description: as §1

[10] = substrate: CC(=O)NCCSC(=O)[C@H](CC(C)C)NC(=O)[C@H](CCCN)NC(=O)[C@@H](Cc1ccccc1)NC(=O)[C@H](CC(C)C)NC(=O)[C@H](CCCN)NC(=O)[C@H](N)Cc1ccccc1; conditions: other: Table 2; cyclization of peptide-SNAC substrates of 6-14 amino acids
Description: as §1

B1: TycC TE (excised TE domain protein from the tyrocidine NRPS) (Brevibacillus parabrevis) (protein)
chain: FESRYGTAILLNQETARNVFCFTPIGAQSVYYQKLAAEIQGVSLYSFDFIQDDNRMEQYIAAITAIDPSGPYTLMGYSSGGNLAFEVAKELEERGYGVTDIILFDSYWKDKAIERTVAETENDIAQLFAEIGENTEMFNMTQEDFQLYAANEFVKQSFVRKTVSYVMFHNNLVNTGMTTAAIHLIQSELEADEEAPVAAKWNESAWANATQRLLTYSGHGIHSRMLAGDYASQNASILQNILQELFILK
notes: excised TE domain protein from the tyrocidine NRPS (TycC TE); made in house
Km [1]: 15 µM | Km [2]: 4 µM | Km [3]: 6 µM | Km [4]: 56 µM | Km [5]: 9 µM | Km [6]: 6 µM | Km [7]: 6 µM | kcat [7]: 0.367 s⁻¹ | Km [8]: 3 µM | Km [9]: 6 µM | Km [10]: 4 µM | kcat [10]: 0.5 s⁻¹
